This note sets out measurements from publication PMC9178793, “A Direct Assay for Measuring the Activity and Inhibition of Coactivator-Associated Arginine Methyltransferase 1” (Biochemistry, 2022).

Substrate in series [1]: CSCC[C@H](NC(=O)[C@@H](NC(=O)[C@H](CO)NC(=O)[C@H](Cc1ccccc1)NC(=O)[C@@H]1CCCN1C(=O)[C@@H]1CCCN1C(=O)[C@H](CCCNC(=N)N)NC(=O)[C@@H]1CCCN1C(=O)[C@H](C)NC(=O)[C@H](C)NC(=O)[C@@H]1CCCN1C(C)=O)[C@@H](C)O)C(N)=O
Description: kinetic analysis of CARM1 substrates (KM determination, MRM LC-MS enzymatic activity assay). Format: biochemical, Mus musculus. Conditions: other: fixed 100 μM AdoMet, PABP1 456–466 0.05–100 μM. From the text:
(§1) The Mus musculus CARM1 (mmCARM1) gene sequence corresponding to the PRMT core (residues 130–497, mmCARM1_130–497) were amplified by PCR from the original GST-CARM1 construct.[19] The sequences were cloned in the pDONR207 (Invitrogen) vector using a BP reaction (Gateway Cloning, Life Technologies). The positive clones were confirmed by sequencing (GATC). The sequences were subcloned in a pDEST20 vector using an LR reaction. The resulting recombinant protein is harboring an amino-terminal glutathione S-transferase (GST) tag followed by a Tobacco etch virus (TEV) protease cleavage site. DH10Bac competent cells containing the baculovirus genome were transformed with the pDEST20-CARM1 plasmids and plated onto LB agar media containing 15 mg·mL^–1 tetracycline, 7 mg·mL^–1 gentamicin, 50 mg·mL^–1 kanamycin, 25 mg·mL^–1 X-Gal, and 40 mg·mL^–1 IPTG. Bacmid DNA purified from recombination-positive white colonies was transfected into Sf9 cells using the Lipofectin reagent (Invitrogen). Viruses were harvested 10 days after transfection. […]
(§2) Enzyme activity assays were performed with CARM1 (286 nM corresponding to 11.68 ng/μL) in 20 mM Tris buffer (pH 8) containing 50 mM Tris NaCl, 1 mM EDTA, 3 mM MgCl2, 0.1 mg/mL BSA, and 1 mM dithiothreitol (DTT). […] The supernatant (60 μL) was transferred to a new 96-well plate and analyzed. […]

Substrate in series [2]: C[S+](CC[C@H](N)C(=O)[O-])C[C@H]1O[C@@H](n2cnc3c(N)ncnc32)[C@H](O)[C@@H]1O
The series is described as above. It counts as biochemical, Mus musculus. Conditions: other: fixed 100 μM PABP1, AdoMet 0.05–100 μM.
From the text: as §1, §2

B1: CARM1 (Mus musculus) (protein)
chain: GHTLERSVFSERTEESSAVQYFQFYGYLSQQQNMMQDYVRTGTYQRAILQNHTDFKDKIVLDVGCGSGILSFFAAQAGARKIYAVEASTMAQHAEVLVKSNNLTDRIVVIPGKVEEVSLPEQVDIIISEPMGYMLFNERMLESYLHAKKYLKPSGNMFPTIGDVHLAPFTDEQLYMEQFTKANFWYQPSFHGVDLSALRGAAVDEYFRQPVVDTFDIRILMAKSVKYTVNFLEAKEGDLHRIEIPFKFHMLHSGLVHGLAFWFDVAFIGSIMTVWLSTAPTEPLTHWYQVRCLFQSPLFAKAGDTLSGTCLLIANKRQSYDISIVAQVDQTGSKSSNLLDLKNPFFRYTGTTPSPPPGSHYTSPSENM
notes: corresponding to the PRMT core (residues 130–497, mmCARM1_130–497) were amplified by PCR; GST (followed by TEV protease cleavage site) (N, cleaved yes); made in house; host or cells: Sf9 insect cells (baculovirus)
Turning to B1, the Km in series [1] came out at 12.03 ± 2.28 µM; in series [2], 5.46 ± 0.01 µM.
